Experimental data as given in patent US5932432.

Assays:
[1] = target: yeast RAS1 protein with the carboxy-terminal sequence CAIL (yeast) (UniProt P01119)
[2] = target: yeast RAS1 protein with the carboxy-terminal sequence CAIM (yeast) (UniProt P01119)

“farnesyl:protein transferase (FTase) present in a tobacco protein extract (enzyme)” gave a lowest protein concentration detected by radiolabeling protein blots with [3H]FPP (in vitro farnesylation, fluorography) [1] of less than 12 and a lowest protein concentration detected by radiolabeling protein blots with [3H]FPP (in vitro farnesylation, fluorography) [2] of 0.12 mmol m^-2.
